Experimental data as given in article PMC9129080, “Control of fruit softening and Ascorbic acid accumulation by manipulation of SlIMP3 in tomato” (Plant Biotechnology Journal, 2022).

Columns and labels:
[1] = substrate: O=P(O)(O)OC1O[C@@H](CO)[C@@H](O)[C@@H](O)[C@@H]1O; assay: phosphate release, malachite green; assay type: biochemical, Solanum lycopersicum; details: 3.5 mM MgCl2, 50 mM Tris-Cl pH 7.0, 25 °C
[2] = substrate: O=P(O)(O)O[C@@H]1[C@@H](O)[C@H](O)[C@@H](O)[C@H](O)[C@@H]1O; assay: phosphate release, malachite green; assay type: biochemical, Solanum lycopersicum; details: 3.5 mM MgCl2, 50 mM Tris-Cl pH 7.0, 25 °C

B1: SlIMP3 (Solanum lycopersicum) (protein)
chain: MAQNGSVEQFLDVAVEAAKKAGEIIREGFYKTKHVEHKGMVDLVTETDKACEDFIFNHLKQRFPSHKFIGEETTAACGNFELTDEPTWIVDPLDGTTNFVHGFPFVCVSIGLTIEKKPTVGVVYNPIIDELFTGIDGKGAFLNGKPIKVSSQSELVKALLATEAGTNRDKLVVDATTGRINSLLFKVRSLRMCGSCALNLCGVACGRLDLFYELEFGGPWDVAGGAVIVKEAGGFVFDPSGSEFDLTARRVAATNAHLKDAFIKALNE
notes: tag removal not mentioned
[1]
  Km: 290 µM
[2]
  Km: 280 µM
